Data: patent US20230067757A1 (NOVAROCK BIOTHERAPEUTICS, published 2023)
Where two headings read alike, the source gives them in different places.

Columns and labels:
[1] = target: T1, human claudin 18 isoform 1 (claudin 18.1) (human, UniProt P56856 1-261); assay: immunofluorescence imaging on CHO cells expressing human CLDN18.1, antibody at 10 µg/ml
T1 construct: Recombinant on transfected CHO cells (CHO-CLDN18.1); also called CLDN18.1
Experimental: (§1) The specific cellular binding affinity of anti-Claudin18.2 antibodies was tested on CHO-CLDN18.2 (transfected CHO cell expressing recombinant human CLDN18.2) and CHO-CLDN18.1 (transfected CHO cell expressing recombinant human CLDN18.1) cells. The cells were plated in complete media containing F12 with 10% FBS, then incubated overnight at 37° C., anti-Claudin18.2 antibodies were serial diluted and added to the assay plates, incubated at 4° C. for 2 hours, followed by fixing cells and further staining the cells for 30 minutes with Alexa Fluor® 488 Goat Anti-Human IgG (H+L) secondary antibody, invitrogen Cat #A-11013 for detection. The binding was assessed by imaging the cells and quantifying the fluorescence intensity using a Biotek Cytation.

[2] = target: T2, human claudin 18 isoform 2 (claudin 18.2) (human); assay: immunofluorescence imaging, CHO-CLDN18.2 cells, serial dilution
T2 construct: Recombinant on transfected CHO cells (CHO-CLDN18.2) or endogenous on tumor cell lines PATU8988S, NUGC-4, KATOIII; the cell line is named under assay; also called CLDN18.2
Experimental: as §1

[3] = target: T2, human claudin 18 isoform 2 (claudin …); assay: cell-based or functional assay
[4] = target: T2, human claudin 18 isoform 2 (claudin …); assay: imaging, PATU8988S cells (endogenous CLDN18.2); +++ = EC50 between 2 nM and 20 nM
[5] = target: T2, human claudin 18 isoform 2 (claudin …); assay: cell-based or functional assay; remark: listed apart in the source
[6] = target: T2, human claudin 18 isoform 2 (claudin …); assay: cell-based or functional assay; remark: listed apart in the source
[7] = target: T1, human claudin 18 isoform 1 (claudin …); assay: imaging, CHO-CLDN18.1 cells, single concentration (FIG. 3A)
Experimental: as §1

[8] = target: T2, human claudin 18 isoform 2 (claudin …); assay: cell-based or functional assay; remark: listed apart in the source

T1 sequence (P56856 whole entry, canonical isoform): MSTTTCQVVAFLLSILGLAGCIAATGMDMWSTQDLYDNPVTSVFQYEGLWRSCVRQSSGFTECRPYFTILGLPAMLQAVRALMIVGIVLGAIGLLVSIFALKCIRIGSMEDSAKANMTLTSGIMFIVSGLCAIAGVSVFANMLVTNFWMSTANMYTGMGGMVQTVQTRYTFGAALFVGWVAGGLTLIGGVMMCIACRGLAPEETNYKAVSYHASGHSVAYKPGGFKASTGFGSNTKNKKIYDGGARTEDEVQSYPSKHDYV

Binder	binding result [1]	EC50 [2]	EC50 [4]	endocytosis derived cell toxicity EC50, CHO-18.2 cells (anti-IgG Fc-MMAF co-internalization) [3]	further results
Ms12 (antibody, V domains shown) VH: EIQLQQSGPELVKPGASVKVSCKASGYAFASYKMYWVKQSHGKSLEWIGYIDPYNGVTSYNQKFRGKATLTVDKSSSTAYMHLNSLTSEDSAVYYCARGAYYGNSFDYWGQGTTLTVSS VL: DIVMTQSPSSLTVTAGEKVTMSCKSSQSLLNSGNQKNYLTWYQQQPGQPPKLLIYWASTRESGVPDRFTGSGSGTDFTLTISSVQAVDLAVYYCQSAYSFPYTFGGGTKLEVK	no binding (tested: 10 µg/ml)	2 nM	2 to 20 nM	1.07 nM	–
Hu-14 (antibody, V domains shown) VH: EVQLLESGGGLVQPGGSLRLSCAASGITFSSYAMSWVRQVPGKGLEWVSVISGSGGSTYYADSVKGRFTISRDNSKNTLYLQMNSLRAEDTAVYYCAKDRGYDILTTYYDYFYGMDVWGQPEFQHTGG VL: DIQMTQSPSSLSASVGDRVIITCRASQGIRNDLGWYQQKPGKAPKRLIYAASSLQSGVPSRFSGSGSGTEFTLTISSLQPEDLASYYCLQHNSYPYTFGQGTKLEIK	–	19 nM	–	–	ADCC EC50, CHO-18.2 target cells (mouse FcγRIV reporter bioluminescence) [5]: 1.51 nM; endocytosis derived cell toxicity EC50, CHO-18.2 cells (anti-IgG Fc-MMAF co-internalization) [6]: 1.51 nM
Hu-16 (antibody, V domains shown) VH: EVQLLESGGGVVQPGGSLRLSCAASGLIFSSYAMSWVRQAPGKGLEWVSVIGGSGSNTFYADSVKGRFTISRDNSKNTLFLQMNSLRAEDTAVYYCAKDRGYDILTGYYNYYYGMDVWGQGITVTVSS VL: DIQMTQSPSSLSASVGDRVTITCRASQGIRNDLGWYQQKPGKAPKRLIYAASSLQSGVPSRFSGSGSGTEFTLTISSLQPEDFATYYCLQHNSYPYTFGQGTKLEIK	no binding (tested: 10 µg/ml)	12 nM	–	–	ADCC EC50, CHO-18.2 target cells (mouse FcγRIV reporter bioluminescence) [5]: 3.09 nM; endocytosis derived cell toxicity EC50, CHO-18.2 cells (anti-IgG Fc-MMAF co-internalization) [6]: 3.09 nM
Ms13 (antibody, V domains shown) VH: EVQLQQSGPELVKPGASVKMSCKASGYTFTRYIMHWVKQKPGQGLEWIGYFNPYNDDSKTSEKFKGKATLTSDKSSSTAYMEINSLTSEDSAVYYCAKLRQERIAYWGQGTLVTVSA VL: DIQMNQSPSSLSASLGDTITITCHASQNIDVWLSWYQQKPGNFPKLLIYKASNLHTGVPSRFSGSGSGTGFTLTISSLQPEDIATYYCQQGQSYPLTFGAGTKLELK	–	1.2 nM	2 to 20 nM	0.71 nM	binding result [7]: no binding (tested: 10 µg/ml)
NBL-014G (antibody, human IgG1, kappa, V domains shown, low, or no IgG core fucose (non- or afucosylated)) VH: EVQLLESGGGLVQPGGSLRLSCAASGFTFSSFAMTWVRQAPGKGLEWVSSLSGSGRSTYYAASMKGRFTISRDNSKNTLYLQMNSLRAEDTAIYYCAKSLSYYHYYFDYWGQGTLVTVTS VL: DIQLTQSPSFLSASVGDRVPITCRASQGISNFLAWYQQKPGKAPELLIHSASTLQSGVPSRFSGSGSGTEFTLTISNLQPQDFATYYCQQVNSYPLTFGGGTKVEIKR	–	–	–	–	ADCC EC50, CHO-claudin18.2 cells (human FcγRIIIa reporter bioluminescence) [8]: 0.02 nM; ADCC EC50, NUGC-4 cells (human FcγRIIIa reporter bioluminescence) [8]: 0.06 nM; ADCC EC50, PATU8988S cells (human FcγRIIIa reporter bioluminescence) [8]: 0.04 nM; CDC EC50, CHO-claudin18.2 cells (human serum, flow cytometry) [8]: 0.3 nM; fold improvement of ADCC EC50 over parental NBL-014, CHO-claudin18.2 cells (human FcγRIIIa reporter bioluminescence) [8]: 35 fold; fold upshift of maximum ADCC effect over parental NBL-014, NUGC-4 cells (human FcγRIIIa reporter bioluminescence) [8]: ~3 fold; fold upshift of maximum ADCC effect over parental NBL-014, PATU8988S cells (human FcγRIIIa reporter bioluminescence) [8]: ~33 fold
NBL-014 (antibody, human IgG1, kappa, V domains shown) VH: EVQLLESGGGLVQPGGSLRLSCAASGFTFSSFAMTWVRQAPGKGLEWVSSLSGSGRSTYYAASMKGRFTISRDNSKNTLYLQMNSLRAEDTAIYYCAKSLSYYHYYFDYWGQGTLVTVTS VL: DIQLTQSPSFLSASVGDRVPITCRASQGISNFLAWYQQKPGKAPELLIHSASTLQSGVPSRFSGSGSGTEFTLTISNLQPQDFATYYCQQVNSYPLTFGGGTKVEIKR	–	–	–	–	ADCC EC50, CHO-claudin18.2 cells (human FcγRIIIa reporter bioluminescence) [8]: 0.73 nM; ADCC EC50, NUGC-4 cells (human FcγRIIIa reporter bioluminescence) [8]: 0.4 nM; ADCC EC50, PATU8988S cells (human FcγRIIIa reporter bioluminescence) [8]: 0.12 nM; CDC EC50, CHO-claudin18.2 cells (human serum, flow cytometry) [8]: 0.22 nM; fold improvement of CDC EC50 over PC1 (in-house iMAb36), CHO-claudin18.2 cells (human serum, flow cytometry) [8]: ~10 fold
Ms10 (antibody, V domains shown) VH: EVQLQQSGPELEKPGASVKISCKASGYSFTGYKMNWVKQSNGKSLEWIGHIDPYYGGPRYNKKFMGKATLTVDRSSSTAYMQLKSLTSEDSAVYYCARLDYGNSFAYWGQGTLVTVSA VL: DIVMTQSPSSLSVSAGEKVTMSCKSSQSLLNSGNQKNYLAWYQQKPGQPPKLLIYGASTRESGVPDRFTGSGSGTDFTLTISSVQAEDLAVYYCQNDHSYPFTFGGGTKLEIK	no binding (tested: 10 µg/ml)	1.3 nM	2 to 20 nM	0.96 nM	–
Ms6 (antibody, V domains shown) VH: QVQLQQSGAELAKPGASVKMSCRASGYTFTSYLMHWIKQRPGQALEWIGYINPTTDYTEYNQKFKGKATLTADKSSSTAYMQLSSLTSEDSAVYYCGRLGYYKRNAMDHWGQGTSVTVSS VL: DIVMTQSPSSLSVSAGEKVTMSCKSSQSLLNSGNQKNYLAWYQQKPGQPPKLLIYGASTRESGVPDRFTGSGSGTDFTLTISSVQAEDLAVYYCQNDHFYPLTFGAGTKLELK	no binding (tested: 10 µg/ml)	1.2 nM	2 to 20 nM	1.26 nM	–
Ms1 (antibody, V domains shown) VH: EIQLQQSGPELVKPGASVKVSCKASGYAYTRYNMYWVKQSHGKSLEWIGYIDPYNGGTNYNQKFKGKATLTVDKSSSTAYMHLNSLTSEDSAVYYCARGGYYGNAMDYWGQGTSVTVSS VL: DIVMTQSPSSLTVTAGEKVTMSCKSSQSLLNSGNQKNYLTWYQQKPGQPPKLLIYWASTRESGVPDRFTGSGSGTDFTLTISSVQAEDLSIYYCQSNYIYPFTFGAGTTLELQ	no binding (tested: 10 µg/ml)	1.2 nM	2 to 20 nM	1.09 nM	–
Ms7 (antibody, V domains shown) VH: EVKLVESGGDLVQPGGSLRLSCTTPGFTFSDFYMEWVRQPPGKRLEWIAASRNKANDYTTENSASVKGRFIVSRDTSQSILYLQMNALRAEDTAIYYCARDACPWDWFAYWGQGTLVTVSA VL: DIVMTQSPSSLTVTAGEKVTMSCKSSQSLLNSGNQKNYLTWYQQKPGQPPKLLIYWASTRESGVPDRFTGSGSGTDFTLTISSVQAEDLAVYYCQNDYSYPFTFGSGTKLEIK	no binding (tested: 10 µg/ml)	1.4 nM	2 to 20 nM	1.12 nM	–

The next lines start with results.

binding result [1]	EC50 [2]	EC50 [4]	Binder	endocytosis derived cell toxicity EC50, CHO-18.2 cells (anti-IgG Fc-MMAF co-internalization) [3]	further results
no binding (tested: 10 µg/ml)	4.5 nM	–	Hu-5 (antibody, V domains shown) VH: QVQLVQSGAEVKKPGASVKVSCEASGYTFTSSYMHWVRQAPGQGLEWMGIINPSGGRTNYAQKFQGRVTMTRDTSTSTVYMELSSLRSEDTAVYYCARDHYDIFTTYYPRGMDVWGQGTTVTVSS VL: DIQMTQSPSSLSASVGDRVTITCRASQGIRNDLGWYQQKPGKAPKRLIYAASSLQSGVPSRFSGSGSGTEFTLTISSLQPEDFTTYYCLQHNSFPFTFGQGTELEIR	–	ADCC EC50, CHO-18.2 target cells (mouse FcγRIV reporter bioluminescence) [5]: 7.09 nM; endocytosis derived cell toxicity EC50, CHO-18.2 cells (anti-IgG Fc-MMAF co-internalization) [6]: 13.4 nM
no binding (tested: 10 µg/ml)	1.7 nM	2 to 20 nM	Ms5 (antibody, V domains shown) VH: QVQLQQPGAELVKPGASVKLSCKASGYTFTRYLMHWVKQRPGQGLEWIGEINPSNGRTNYNEKFKSKAALTVDKSSSTAYMQLSSLTSEDSAVYYCARLAYGYGNAVDYWGQGTSVTVSS VL: DIVMTQSPSSLSVSAGEKVTMSCKSSQSLLNSGNQKNYLAWYQQKPGQPPKLLIYGASTRESGVPDRFTGSGSGTDFTLTISSVQAEDLAVYYCQNDHSYPLTFGAGTKLELK	1.43 nM	–
no binding (tested: 10 µg/ml)	1.8 nM	2 to 20 nM	Ms3 (antibody, V domains shown) VH: EVMLVESGGGIVKPGGSLKLSCAASGFTLSSYTMSWVRQTPERRLEWVATIIIGGSYTYYPDSVKGRFTISRDNAKNTLYLQMSSLRSEDTAMYYCARQGYGNSFPYWGQGTLVTVSA VL: DIVMTQSPSSLTVTAGEKVTMSCKSSQSLLNSGNQKNYLTWYQQKPGQPPKLLIYWASTRESGVPDRFTGSGSGTDFTLTISSVQAEDLAVYYCQNDYSYPFTFGSGTKLEIK	1.14 nM	–
no binding (tested: 10 µg/ml)	1.5 nM	2 to 20 nM	Ms8 (antibody, V domains shown) VH: EIQLQQSGPELVKPGASVKVSCKASDYAFTRYNMYWVKQSHGKSLEWIGYIDPYNGGTNYNQKFKGKATLTVDKSSSTAYMHLNSLTSEDSAVYYCARGGYYGNAMDYWGQGTSVTVSS VL: DIVMTQSPSSLTVTAGEKVTMSCKSSQSLLNSGNQKNYLTWYQQKPGQPPQLLIYWASTRESGVPDRFTGSGSGTDFTLTISSVQAEDLSIYYCQSNYIYPFTFGAGTTLELQ	1.08 nM	–
